{"source": "paper PMC4829874", "target": "protein A/G", "assay": "SPR; real-time, microfluidic cell on the nanostructured gold film, white light and CCD detector, 0.1 Hz; protein A/G (0.5 mg/mL, 1 h, 30 uL/min) immobilised, flushed with PBS; IgG 10 ug/mL injected at 30 uL/min; 10 mM PBS"}
{"substance": "IgG (antibody)", "values": [{"measurement": "resonance peak shift at 10 ug/mL IgG", "result": 2, "unit": "nm"}]}
